According to article PMC12423313, “Protein-based tools for the detection and characterisation of Oropouche virus infection” (EMBO Molecular Medicine, 2025):

B1: OROV Gc spike region (residues 482-894 of the M polyprotein), recombinant, strain BeAn19991 (domain or fragment, Oropouche virus strain BeAn19991)
chain: DEDCLSKDIKITYQELHNCIGPKIMGDTCVSKSELYSDLFSKNLVTEYDKKYFEPDTVNDQFNKIEFAQDAHRMILLERILYKTECEMLSLKKNSGPYNVAWRTYFKNHNIDLCSRHNYKMICQCINTHSMCKNTDIDYNKEIETYYKSNAAAYRADLNTIMDTLKTAFRGLTKVLIENYIEKDDSDALKALFSNITDSVQDNYQMIGILKFASKLLDINLGRSTRSAHHSIMTNEIPKSNPFTDYSYSNLNIKECMSPESLKCFKKRDSTPHTNHLLCKIDNKYKAFDWPEIETIQKGQKLCLGDSHCNLEFTAITADKIMSLTNCYKESFTAQPADMQAGIKKCSADEIGECTTLEDKTWPIIFCGGKYYYSDSKEHAKDGSINNYCLTNKCSEQRFPIHENWFKKCNWDK
notes: Gc spike region (head and stalk domains) of the M polyprotein of Oropouche virus strain BeAn19991, GenBank AJE24679.1, residues 482-894; also called Gc spike domain

How the values were obtained:
[1] = target: T1, nanobody-Fc fusion FcSpB6 (llama); test: ELISA; conditions: both partners purified
T1 construct: as the VHH of m18; also called FcSpB6-HRP; OROV FcSpB6; not shown: Fc (human IgG1 hinge and Fc domains 2 and 3), C-terminal, kept

[2] = target: T2, biotinylated nanobody-Fc fusion bFcSpC7 (C-terminal AviTag) (llama); test: ELISA; conditions: both partners purified
T2 construct: as the VHH of m20; also called OROV FcSpC7 BAP; not shown: Fc (human IgG1 hinge and Fc domains 2 and 3), C-terminal, kept; AviTag, C-terminal, kept

[3] = target: T3, OROV glycoprotein Gc of strain BeAn19991, native, in virus stocks and infected cells (Oropouche virus strain BeAn19991, UniProt A0A0B5CLT0); test: ELISA; sandwich ELISA with nanobodies, […]; conditions: one partner purified
T3 construct: On virus particles Gc stands with Gn; also called Gc spike; OROV BeAn19991

[4] = target: T4, OROV glycoprotein Gc of strain TRVL, native, in virus stock (Oropouche virus strain TRVL (stand-in: …, UniProt A0A0B5CLT0, strain)); test: ELISA; sandwich ELISA with nanobodies, […]; conditions: one partner purified
T4 construct: also called Gc spike; OROV TRVL

[5] = target: B1; test: ELISA; […], biotinylated nanobody 2 µg/mL, […], room temperature; conditions: both partners purified
[6] = target: T3, OROV glycoprotein Gc of strain …; test: immunostaining of cells or tissue; conditions: one partner purified
[7] = target: T5, OROV glycoprotein Gc of the 2023-4 epidemic isolate AM0088, native (Oropouche virus isolate AM0088 …, UniProt A0A0B5CLT0, strain); test: immunostaining of cells or tissue; conditions: one partner purified
T5 construct: also called Gc spike; OROV AM0088

[8] = target: T6, OROV nucleoprotein (N) of strain TRVL, native, in virus stock (Oropouche virus strain TRVL (stand-in: …, strain)); test: ELISA; sandwich ELISA with nanobodies, […]; conditions: one partner purified
T6 construct: N protein of Oropouche virus strain TRVL (Anderson et al, 1961); also called OROV TRVL
T6 chain: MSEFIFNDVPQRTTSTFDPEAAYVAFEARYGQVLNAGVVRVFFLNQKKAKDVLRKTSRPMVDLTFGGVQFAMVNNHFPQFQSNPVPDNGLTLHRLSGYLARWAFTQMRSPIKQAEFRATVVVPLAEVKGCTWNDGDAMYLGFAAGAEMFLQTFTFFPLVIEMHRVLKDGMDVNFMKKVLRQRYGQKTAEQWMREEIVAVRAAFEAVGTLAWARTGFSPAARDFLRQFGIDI

[9] = target: T7, OROV nucleoprotein (N) of strain BeAn19991, native, in virus stocks and infected cells (Oropouche virus strain BeAn19991); test: ELISA; sandwich ELISA with nanobodies, […]; conditions: one partner purified
T7 construct: N protein of Oropouche virus strain BeAn19991, GenBank AJE24680.1, as made by the virus; also called OROV BeAn19991
T7 chain: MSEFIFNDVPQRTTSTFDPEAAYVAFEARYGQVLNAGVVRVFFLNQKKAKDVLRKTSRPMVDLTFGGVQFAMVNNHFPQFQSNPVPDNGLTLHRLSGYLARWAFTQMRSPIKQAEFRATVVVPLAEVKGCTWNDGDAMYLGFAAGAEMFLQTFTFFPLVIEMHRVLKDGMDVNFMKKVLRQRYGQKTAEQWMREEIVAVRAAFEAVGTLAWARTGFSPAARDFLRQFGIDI

[10] = target: T8, OROV nucleoprotein (N), recombinant, strain BeAn19991 (Oropouche virus strain BeAn19991); test: ELISA; conditions: both partners purified
T8 chain: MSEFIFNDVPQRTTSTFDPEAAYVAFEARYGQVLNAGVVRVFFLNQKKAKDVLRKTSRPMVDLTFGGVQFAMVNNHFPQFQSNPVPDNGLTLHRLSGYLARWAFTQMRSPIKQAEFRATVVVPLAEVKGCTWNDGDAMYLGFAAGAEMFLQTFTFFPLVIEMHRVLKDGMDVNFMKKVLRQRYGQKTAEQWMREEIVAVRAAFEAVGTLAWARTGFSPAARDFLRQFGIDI

[11] = target: T9, OROV nucleoprotein (N) of the 2023-4 epidemic isolate AM0088, native (Oropouche virus isolate AM0088, strain); test: immunostaining of cells or tissue; conditions: one partner purified
T9 construct: also called OROV AM0088 N
T9 chain: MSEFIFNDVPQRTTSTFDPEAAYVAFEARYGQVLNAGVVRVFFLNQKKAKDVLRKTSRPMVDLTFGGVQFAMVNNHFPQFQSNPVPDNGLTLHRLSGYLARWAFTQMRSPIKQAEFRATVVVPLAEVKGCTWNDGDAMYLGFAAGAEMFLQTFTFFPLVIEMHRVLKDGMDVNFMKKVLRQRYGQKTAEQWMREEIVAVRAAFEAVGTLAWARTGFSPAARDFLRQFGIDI

[12] = target: T7, OROV nucleoprotein (N) of strain …; test: immunostaining of cells or tissue; conditions: one partner purified

B1
binding result [1]: binds | binding result [2]: binds

B2: biotinylated nanobody SpC7 (AviTag-His9) (VHH)
VHH: QVQLVESGGGLVQAGGSLRLSCAASGRTFSPNAMGWFRQAPGKEREFVSAISWSGGSTTYADSVKGRFTISRDNAKNTVSLQMNSLKPEDTAVYYCAADLEGMVVADRIWGQGTQVTVSS
notes: VHH SpC7 from an immunised llama; also called bSpC7; (biotinylated)bSpC7; not shown: AviTag, C-terminal, kept
binding result [3]: binds | binding result [4]: binds | binding result [5]: binds

B3: AlexaFluor568-conjugated OROV SpE8 nanobody (Cys-His8) (VHH)
VHH: QVQLVESGGGFVRAGDSLRLSCAASGRAFSTYAMGWFRQAPGKEREFVAGITLGSRITQYADSVKGRFTISRDNARQTMYLQMNNLQPEDTADYYCAARGQGSPPLRNRWSADDYNYWGQGLQVTVSS
notes: as the VHH of m21; also called OROV Sp Nb E8 CH8
binding result [6]: binds | binding result [7]: binds

B4: biotinylated nanobody NpE3 (AviTag-His9) (VHH)
VHH: QVQLVESGGGLVRPGGSLRLSCAASGFTFSNAYMTWIRQAPGKDLEWVSSIYYGDMTSYATSVKGRFTISRDNAKNTLYLQMNNLKPEDSAIYYCTKGDERGQGTQVTVSS
notes: VHH NpE3 from an immunised llama; also called bNpE3; OROV Np Nb E3 BAP H9; not shown: AviTag, C-terminal, kept
binding result [8]: binds | binding result [9]: binds | binding result [10]: binds

B5: AlexaFluor568-conjugated OROV NpE3 nanobody (Cys-His8) (VHH)
VHH: QVQLVESGGGLVRPGGSLRLSCAASGFTFSNAYMTWIRQAPGKDLEWVSSIYYGDMTSYATSVKGRFTISRDNAKNTLYLQMNNLKPEDSAIYYCTKGDERGQGTQVTVSS
notes: as the VHH of m13; also called OROV Np Nb E3 CH8
binding result [11]: binds | binding result [12]: binds
